This is an account of results in patent US9296810 (Novartis, dated 2016).

Residue numbers refer to the chain shown, from its start.

For this test, the target named is T1, hen egg white lysozyme (hen, UniProt P00698 19-147, biotinylated (HEL-b); sites not stated).
T1 construct: also called lyzozyme; HEL-b (biotinylated)
The test is described as follows: yeast display selection.

T1 sequence (P00698 19-147 limits assumed): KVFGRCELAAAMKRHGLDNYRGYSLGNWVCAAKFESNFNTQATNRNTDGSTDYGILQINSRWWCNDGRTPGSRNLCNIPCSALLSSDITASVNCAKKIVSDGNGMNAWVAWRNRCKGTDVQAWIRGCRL

B1: SEQ ID NO 113 (designed binder)
chain: VSDVPRDLEVVAATPTSLLISWDAPAVTVRYYRITYGERRGQYGSSQEFTVPGSKSTATISSPEGSVDYTITVYAVTGRGESPASSKPISINYSRSE
Take B1: the binding result was “binds”.

B2: SEQ ID NO 116 (designed binder)
chain: VSDVPRDLEVVAATPTSLLISWDAPTVTVRYYRITYGEPQASHRPYQEFTVPGSKSTATISSRSQSVDYTITVYAVTGRGESPASSKPISINYLREL
On to B2, for which the binding result is on record as “binds”.

B3: SEQ ID NO 48 (designed binder)
chain: VSDVPRDLEVVAATPTSLLISWDAPAVTVRYYRITYGEQSGLSEHQEFTVPGSKSTATISSLRYYVDYTITVYAVTGRGESPASSKPISINYAYEY
B3: the binding result was “binds”.

B4: SEQ ID NO 88 (designed binder)
chain: VSDVPRDLEVVAATPTSLLISWDAPAVTVRYYRITYGESSSSRRQEFTVPGSKSTATISGEESYVDYTITVYAVTGRGESPASSKPISINYAEER
Take B4: the binding result is on record as “binds”.

B5: SEQ ID NO 110 (designed binder)
chain: VSDVPRDLEVVAATPTSLLISWDAPAVTVRYYRITYGESSGYAERGQEFTVPGSKSTATISSPGARVDYTITVYAVTGRGESPASSKPISINYSSLG
For B5, the binding result is “binds”.

B6: SEQ ID NO 43 (designed binder)
chain: VSDVPRDLEVVAATPTSLLISWDAPAVTVRYYRITYGEEAYRSEGQEFTVPGSKSTATISSYGQGVDYTITVYAVTGRGESPASSKPISINYEGSE
In the case of B6, the binding result is reported as “binds”.

B7: SEQ ID NO 44 (designed binder)
chain: VSDVPRDLEVVAATPTSLLISWDAPAVTVRYYRITYGESSLGSEQEFTVPGSKSTATISEYAPYVDYTITVYAVTGRGESPASSKPISINYYGPG
As to B7, the binding result is “binds”.

B8: SEQ ID NO 87 (designed binder)
chain: VSDVPRDLEVVAATPTSLLISWDAPAVTVRYYRITYGEAYGESYQEFTVPGSKSTATISQSPEYVDYTITVYAVTGRGESPASSKPISINYASEY
As to B8, the binding result is “binds”.

B9: SEQ ID NO 114 (designed binder)
chain: VSDVPRDLEVVAATPTSLLISWDAPAVTVRYYRITYGEQRYSYYGQQEFTVPGSKSTATISSGRSSVDYTITVYAVTGRGESPASSKPISINYRRSY
Consider B9, for which the binding result is recorded as “binds”.

B10: SEQ ID NO 115 (designed binder)
chain: B9 chain with Q39R, R40P, Y41A, Y44R, G45A, Q46A, G63Y, R64S, S65Y, Y97G
Consider B10, for which the binding result is “binds”.

B11: SEQ ID NO 95 (designed binder)
chain: VSDVPRDLEVVAATPTSLLISWDAPAVTVRYYRITYGEYEYARQEFTVPGSKSTATISRLYRRVDYTITVYAVTGRGESPASSKPISINYYRSA
On to B11, for which the binding result is recorded as “binds”.

B12: SEQ ID NO 91 (designed binder)
chain: VSDVPRDLEVVAATPTSLLISWDAPAVTVRYYRITYGEYQRSRQEFTVPGSKSTATISSYGGYVDYTITVYAVTGRGESPASSKPISINYRSLR
For the molecule B12, the binding result is “binds”.

B13: SEQ ID NO 92 (designed binder)
chain: B11 chain with Y41R, A42Y, R59S, L60Q, Y61S, R63Y, Y91G, S93P
Consider B13, for which the binding result is recorded as “binds”.

B14: SEQ ID NO 96 (designed binder)
chain: B12 chain with Q40H, R41Y, R43E, S59Y, G61E, G62P, Y63R, R91H, L93S
Consider B14, for which the binding result was “binds”.

B15: SEQ ID NO 97 (designed binder)
chain: B11 chain with Y39Q, E40R, A42L, R59S, L60R, Y61S, R62A, Y91P, R92Y
Turning to B15, the binding result was “binds”.

B16: SEQ ID NO 112 (designed binder)
chain: VSDVPRDLEVVAATPTSLLISWDAPAVTVRYYRITYGEQYYHQGRRQEFTVPGSKSTATISRYGGSVDYTITVYAVTGRGESPASSKPISINYYAYG
In the case of B16, the binding result was “binds”.

B17: SEQ ID NO 45 (designed binder)
chain: VSDVPRDLEVVAATPTSLLISWDAPAVTVRYYRITYGEQAQEEGQEFTVPDSKSTATISAHRSYVDYTITVYAVTGRGESPASSKPISINYYYGE
For the molecule B17, the binding result was “binds”.

B18: SEQ ID NO 90 (designed binder)
chain: VSDVPRDLEVVAATPTSLLISWDAPAVTVRYYRITYGEGERPYQEFTVPGSKSTATISYAHYSVDYTITVYAVTGRGESPASSKPISINYERRS
In the case of B18, the binding result is given as “binds”.

B19: SEQ ID NO 93 (designed binder)
chain: B18 chain with G39Y, E40P, P42E, Y59R, A60Y, H61G, S63H, E91S, R92G, R93Y
Consider B19, for which the binding result is “binds”.

B20: SEQ ID NO 108 (designed binder)
chain: B18 chain with G39P, E40R, P42R, Y59P, A60G, H61G, Y62Q, E91G, R93G, S94Y
For B20, the binding result was “binds”.

B21: SEQ ID NO 94 (designed binder)
chain: VSDVPRDLEVVAATPTSLLISWDAPAVTVRYYRITYGEYEHYYQEFTVPGSKSTATISPYAGGVDYTITVYAVTGRGESPASSKPISINYSESE
Consider B21, for which the binding result was “binds”.

B22: SEQ ID NO 98 (designed binder)
chain: VSDVPRDLEVVAATPTSLLISWDAPAVTVRYYRITYGERSSRSQEFTVPGSKSTATISHSREPVDYTITVYAVTGRGESPASSKPISINYQYRY
Consider B22, for which the binding result is listed as “binds”.

B23: SEQ ID NO 101 (designed binder)
chain: B22 chain with R39E, S43P, H59Q, S60A, E62A, P63R, Q91R, Y92R, R93Y, Y94R
In the case of B23, the binding result is given as “binds”.

B24: SEQ ID NO 99 (designed binder)
chain: B22 chain with R39S, S40Q, R42H, S60P, R61S, E62R, Q91P, Y92R, R93S, Y94E
Take B24: the binding result is “binds”.

B25: SEQ ID NO 106 (designed binder)
chain: B22 chain with R39S, S40G, S41Y, S43Y, H59G, S60Y, P63H, Y92E, R93S
On to B25, for which the binding result is given as “binds”.

B26: SEQ ID NO 50 (designed binder)
chain: VSDVPRDLEVVAATPTSLLISWDAPAVTVRYYRITYGESLYYHQEFTVPGSKSTATISASYYAVDYTITVYAVTGRGESPASSKPISINYSYHL
As to B26, the binding result was “binds”.

B27: SEQ ID NO 100 (designed binder)
chain: VSDVPRDLEVVAATPTSLLISWDAPAVTVRYYRITYGEEEEHPQEFTVPGSKSTATISSPQRGVDYTITVYAVTGRGESPASSKPISINYYSYY
As for B27, the binding result is reported as “binds”.

B28: SEQ ID NO 102 (designed binder)
chain: B27 chain with E39Y, E40G, E41A, H42L, P43E, S59R, P60S, R62A, G63E, Y91A
Consider B28, for which the binding result is recorded as “binds”.

B29: SEQ ID NO 107 (designed binder)
chain: B27 chain with E39S, E40G, E41R, H42R, P43G, Q61S, R62L, G63E, Y91R, Y93G
For B29, the binding result is recorded as “binds”.

B30: SEQ ID NO 89 (designed binder)
chain: VSDVPRDLEVVAATPTSLLISWDAPAVTVRYYRITYGEGRHPSYQEFTVPGSKSTATISPSYSRVDYTITVYAVTGRGESPASSKPISINYSRER
As to B30, the binding result was “binds”.

B31: SEQ ID NO 109 (designed binder)
chain: VSDVPRDLEVVAATTTSLLISWDAPAVTVRYYRITYGESGRGAQEFTVPGSKSTATISGLGPPVDYTITVYAVTGRGESPASSKPISINYRSQH
B31: the binding result is reported as “binds”.

B32: SEQ ID NO 46 (designed binder)
chain: VSDVPRDLEVVAATPTSLLISWDAPAVTVRYYRITYGEYRSYRSERQEFTVPGSKSTATISRGYRAVDYTITVYAVTGRGESPASSKPISINYSYRY
As for B32, the binding result was “binds”.

B33: SEQ ID NO 52 (designed binder)
chain: VSDVPRDLEVVAATPTSLLISWDAPAVTVRYYRITYGESSRSPRGQEFTVPGSKSTATISRAEYRVDYTITVYAVTGRGESPASSKPISINYYLRQ
Regarding B33, the binding result was “binds”.

B34: SEQ ID NO 103 (designed binder)
chain: VSDVPRDLEVVAATPTSLLISWDAPAVTVRYYRITYGESREGGQEFTVPGSKSTATISSYQSEVDYTITVYAVTGRGESPASSKPISINYARSR
On to B34, for which the binding result is “binds”.

B35: SEQ ID NO 104 (designed binder)
chain: B34 chain with S39G, R40Q, E41Q, S59A, Q61R, S62G, E63P, A91Y, R92G, R94Y
For the molecule B35, the binding result is given as “binds”.

B36: SEQ ID NO 105 (designed binder)
chain: B34 chain with S39G, E41R, G42Y, S59E, Y60L, Q61L, A91S, R92L, S93R, R94Y
As for B36, the binding result was “binds”.

B37: SEQ ID NO 49 (designed binder)
chain: VSDVPRDLEVVAATPTSLLISWDAPAVTVRYYRITYGERGSEAERQEFTVPGSKSTATISQAYYGVDYTITVYAVTGRGESPASSKPISINYSYAS
Take B37: the binding result is listed as “binds”.

B38: SEQ ID NO 111 (designed binder)
chain: VSDVPRDLEVVAATPTSLLISWDAPAVTVRYYRITYGESEGGSSRSQEFTVPGSKSTATISRSYQPVDYTITVYAVTGRGESPASSKPISINYGSYP
For B38, the binding result is “binds”.

B39: SEQ ID NO 47 (designed binder)
chain: VSDVPRDLEVVAATPTSLLISWDAPAVTVRYYRITYGEERGYERSRQEFTVPGSKSTATISESYRYVDYTITVYAVTGRGESPASSKPISINYPHSY
Turning to B39, the binding result is on record as “binds”.
